Legend:
H37Rv中ESAT6抗原 = biological target: T1, H37Rv中ESAT6抗原 (Mycobacterium tuberculosis H37Rv, UniProt P9WNK7 2-95); assay: Western blotting
T1 construct: also called H37Rv中的ESAT6抗原

重组ESAT6蛋白 = 重组ESAT6蛋白 (Mycobacterium tuberculosis, UniProt P9WNK7 1-95); assay: Western blotting
重组ESAT6蛋白, sequence (P9WNK7 whole entry): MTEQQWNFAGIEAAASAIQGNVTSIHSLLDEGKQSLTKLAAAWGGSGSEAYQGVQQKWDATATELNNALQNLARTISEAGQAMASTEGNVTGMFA

T1 sequence (P9WNK7 2-95 limits assumed): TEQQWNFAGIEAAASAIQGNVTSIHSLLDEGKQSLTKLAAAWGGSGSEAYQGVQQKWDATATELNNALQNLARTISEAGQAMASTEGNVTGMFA

B1: 单克隆抗体MAb 8G4 (抗ESAT6单克隆抗体, 杂交瘤细胞株8G4, CCTCC NO:C2019287) (antibody, V domains shown)
VH: QIQLVQSGPELKRPGETVKISCKASGYTFTNYGMNWVKQAPGKGLKWMGWINTYNGVPTYTDDFKGRFAFSLETSARTAYLQIKNLKNEDMATYFCAIGGNIPPAYWGQGTLVTVSA
VL: NIMMTQSPSSLAVSAREKVTMICKSSHSVLKSSNQKNYLAWYQQKPGQSPKLLIYWASTRNSGVPDRFTGSGSGTNFTLTITSVQTEDLAVYYCHQYLSSLTFGGGTKLELK
notes: also called 单克隆抗体8G4; ESAT6单克隆抗体8G4
binding result (H37Rv中ESAT6抗原): binds
binding result (重组ESAT6蛋白): binds

— patent CN111378628A (UNIV YANGZHOU, dated 2020)
